Assay results published in patent publication CN114591432A (NANJING FUJIEKANG BIOTECHNOLOGY CO LTD, dated 2022).

Molecular target: T1, 人源TNFα重组胞外结构域蛋白 (human, UniProt P01375 57-233)
T1 construct: range 57-233; No purification tag is described; also called 人源重组TNFα蛋白; TNFα蛋白
Experiment: ELISA of crude VHH extract on coated TNFα, anti-HA-HRP; positive if OD above 5 times the control well

T1 sequence (P01375 57-233 limits assumed): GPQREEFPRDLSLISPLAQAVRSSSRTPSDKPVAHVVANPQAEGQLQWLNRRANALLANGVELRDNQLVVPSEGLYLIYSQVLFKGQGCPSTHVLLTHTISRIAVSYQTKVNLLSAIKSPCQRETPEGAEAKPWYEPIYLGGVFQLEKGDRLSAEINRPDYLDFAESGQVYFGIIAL

Row | Binder | binding result
1 | 单域抗体1E9 (VHH, Crude extract from E. coli TG1 clones (pMECS), detected through an HA tag) VHH: ESGGGSVQSGGSLRLSCTVFGATFNGHAMAWFRQAPGKDREGVSCISMSGRSTAYADSVKGRFTISRDNAKNTLYLQMNGLKPEDTAMYYCAAAAFGYCSGPWSSSHGEYMYWGQGTQVTVSS | binds
2 | 单域抗体1H10 (VHH, Crude extract from E. coli TG1 clones (pMECS), detected through an HA tag) VHH: ESGGGLVQAGGSLRLSCTVFGATFNGHAMAWFRQAPGKDREGVSCISMSGRSTAYADSVKGRFTISRDNAKNTLYLQMNGLKPEDTAMYYCAAAAFGYCSGPWSSSHGEYMYWGQGTQVTVSS | binds
3 | 单域抗体2B1 (VHH, Crude extract from E. coli TG1 clones (pMECS), detected through an HA tag) VHH: ESGGGSVQSGGSLRLSCQASGYTSSSYCMGWFRQVPGKEREGVASIDSGGFTHTANSVKGRFTISQDNAKNTLYLQMNSLKPEDTAMYYCAATPREFGWCSLSGHFNYWGQGTQVTVSS | binds
4 | 单域抗体2B8 (VHH, Crude extract from E. coli TG1 clones (pMECS), detected through an HA tag) VHH: ESGGGSVQAGGSLRLSCAASGYTFSTYCMAWFRQAPGEEREGVAYIDTDGSTGHADSVRGRFTVSRDNAKNTLYLQMNSLKPEDTAIYYCAARWTRLCGWWSYPTGSWGQGTQVTVSS | binds
5 | 单域抗体4A5 (VHH, Crude extract from E. coli TG1 clones (pMECS), detected through an HA tag) VHH: ESGGGLVQPGGSLRLSCTVSGLTFNDYALAWFRQAPGKDREGVSCISWSGGSTAYADSVKGRFTISRDNAKNTVYLQMNSLKPEDTAMYYCAAPAFRYCSGPWSSSHGEYIYWGQGTQVTVSS | binds
